Laboratory results taken from patent publication US20250129140A1 (ICAHN SCHOOL OF MEDICINE AT MOUNT SINAI, published 2025).

B1: 15G11 (antibody, V domains shown)
VH: QVQLQESGPGLVKPSQTLSLTCTVSGGSISSGYYYWNWIRQHPGKGLECIGYIYYSGTTYYNPSLKSRLFISVDTSKNQFSLKLRSVTAADTAVYYCARGGLGAFDIWGQGTMVTVSS
VL: EIVLTQSPGTLSLSPGERATLSCRASQSVSSSYLAWYQQKPGQAPRLLIYGASSRAPGIPDRFSGTGSGTDFTLTISRLEPEDFAVYYCQQYGISPLTFGGGTKVEIK
notes: also called 15G11 (ms); anti-gH mAb 15G11
B2: 13G1 (antibody, V domains shown)
VH: QVTLKESGPVLVKPTETLTLTCTVSGFSLYNARMGVTWIRQPPGKALEWLAHIFSNDERSYTSSLKNRLTISKDTSKSQVVLTMTNMDPVDTATYYCARIDYSNYIGNWFDPWGQGTLVTVSS
VL: DIQMTQSPSSLSASVGDRVTITCRASQSISNYLNWYQQKPGKAPKLLIYAASSLQGGVPSRFSGSGSGTDFTLTISSLQPEDFTTYYCQQSYSTPFTFGGGTKVEIK
notes: also called 13G1 (ms); anti-gH mAb 13G1
B3: 14E1 (antibody, V domains shown)
VH: QVQLVQSGAEVKKPGASVKVSCKASGYTFTSYSISWVRQAPGQGLEWMGWINTYNGNTNYAQRVQARVTMTTDTSTSTAYMELRSLRSDDTAVYYCARDHGFFFDYWGQGNLVTVSS
VL: DIQLTQSPSFLSASVGDRVTITCWASQGISSYLAWYQQKPGKAPKLLIYAASTLQSGVPSRFSGSGSGTEFTLTISSLQPEDFATYYCQQLNSYPYTFGQGTQLEIK
notes: also called 14E1 (ms)
B4: 9A12 (antibody, V domains shown)
VH: EVQLVESGGVLVQPGGSLRLSCAASGFTFSSHEMNWVRQAPGKGLEWISYISSTGSTIYDADSVKGRFTISRDNAKNSLYLQMNSLRAEDTAVYYCARSSGWYRNYSYGMDVWGQGTTVTVSS
VL: DIQMAQSPSSLSASVGDRVTITCRASQGIYNYLAWFQQKPGKAPKSLIYAASSLQTGVPSKFSGSGSGTDFTLTISNLQPEDFATYYCQQYNSFPRTFGQGTKVEIK
notes: also called 9A12 (ms); anti-gH mAb 9A12
B5: 5C3 (antibody, V domains shown)
VH: QVQLQQPGAELVRPGASVKLSCKASGYTFTTYWMNWVKQRPGQGLEWIGMIDPSDSETHYNQMFKDKATLTVDTSSSTAYMQLSSLTSEDSAVYYCARGRSWFVYWGQGTLVTVSS
VL: DIVLTQSPASLAVSLGQRATISCRASKSVSSSGYSYVHWYQQKPGQPPKLLIYLASNLESGVPARFSGSGSGTDFTLNIHSVEEEDAATYYCQHNRELPYTFGGGTKLEIKR

Experiments:
[1] = biological target: T1, gH/gL of HCMV strain TB40/E (on virus) (human cytomegalovirus (strain TB40/E)); assay: cell-based or functional assay
[2] = biological target: T2, gH/gL of HCMV strain AD169 (on virus AD169 and on reporter virus AD169R) (human cytomegalovirus (strain AD169), UniProt P12824 24-743; P16832 31-278); assay: cell-based or functional assay
[3] = biological target: T2, gH/gL of HCMV strain AD169 (on virus …); assay: cell-based or functional assay; remark: listed apart in the source
[4] = biological target: T2, gH/gL of HCMV strain AD169 (on virus …); assay: flow cytometry on ARPE-19 cells infected with AD169R (GFP reporter), 6 dpi, antibody 2 µg/mL, anti-mouse AF647 secondary
[5] = biological target: T1, gH/gL of HCMV strain TB40/E (on virus); assay: cell-based or functional assay; remark: listed apart in the source
[6] = biological target: T2, gH/gL of HCMV strain AD169 (on virus …); assay: cell-based or functional assay; remark: listed apart in the source
[7] = biological target: gH/gL of HCMV strain Towne (on virus) (human cytomegalovirus (strain Towne), UniProt P17176 30-742); assay: cell-based or functional assay
[8] = biological target: T1, gH/gL of HCMV strain TB40/E (on virus); assay: cell-based or functional assay; remark: listed apart in the source
[9] = biological target: gH/gL of HCMV strain TR (on virus) (human cytomegalovirus (strain TR)); assay: cell-based or functional assay
[10] = biological target: T2, gH/gL of HCMV strain AD169 (on virus …); assay: cell-based or functional assay; remark: listed apart in the source
[11] = biological target: T3, recombinant HCMV pentamer (strain VR1814) consisting of gH, gL, UL128, UL130 and UL131A (human cytomegalovirus (strain VR1814)); assay: BLI (Octet RED); antibody captured on anti-mouse Fc (AMC) biosensor, recombinant pentamer 100 µg/mL in solution; 1:1 model
T3 construct: also called recombinant pentamer; Native Antigen CMV-PENT-100

[12] = biological target: gH/gL of HCMV strain AD169 (on virus AD169 and on reporter virus AD169R) (human cytomegalovirus (strain AD169), UniProt P12824 24-743; P16832 31-278); assay: flow cytometry on ARPE-19 cells infected with AD169R (GFP reporter), 6 dpi, antibody 2 µg/mL, anti-mouse AF647 secondary; remark: listed apart in the source

Chain of gH/gL of HCMV strain Towne (on virus) (P17176 30-742): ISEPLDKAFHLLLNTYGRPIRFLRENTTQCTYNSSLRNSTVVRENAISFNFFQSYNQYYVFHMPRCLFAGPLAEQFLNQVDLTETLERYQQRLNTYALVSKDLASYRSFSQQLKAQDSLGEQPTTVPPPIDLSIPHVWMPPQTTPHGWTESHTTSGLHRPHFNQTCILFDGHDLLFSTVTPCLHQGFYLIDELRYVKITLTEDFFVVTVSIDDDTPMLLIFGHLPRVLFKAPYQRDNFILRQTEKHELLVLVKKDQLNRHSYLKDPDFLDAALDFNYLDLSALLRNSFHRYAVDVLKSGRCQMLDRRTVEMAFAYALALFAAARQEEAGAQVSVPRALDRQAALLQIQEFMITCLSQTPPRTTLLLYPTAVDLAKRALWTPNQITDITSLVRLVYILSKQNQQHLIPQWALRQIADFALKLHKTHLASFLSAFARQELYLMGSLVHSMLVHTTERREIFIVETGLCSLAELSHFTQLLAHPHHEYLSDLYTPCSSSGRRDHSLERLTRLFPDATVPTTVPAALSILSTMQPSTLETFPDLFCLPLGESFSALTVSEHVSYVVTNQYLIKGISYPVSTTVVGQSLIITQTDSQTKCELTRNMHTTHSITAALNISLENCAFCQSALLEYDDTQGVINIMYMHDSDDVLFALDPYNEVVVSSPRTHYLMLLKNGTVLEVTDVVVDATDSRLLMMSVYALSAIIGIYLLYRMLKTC

Binder	IC50(ARPE-19) TB40/E, virus neutralization [1]	IC50(HTR-svNeo) TB40/E, virus neutralization [1]	IC50(ARPE-19) AD169R, virus neutralization [2]	IC50(HTR-svNeo) AD169R, virus neutralization [2]	IC50 of infection, AD169R neutralization (murine constant regions) [3]	neutralization of BADrUL131-C4 infection at the highest concentrations [3]	Q2, percent of cells GFP+ and Alexa Fluor 647+ [4]	IC50(THP-1) TB40/E, virus neutralization [5]	IC50(THP-1) AD169R, virus neutralization [6]	IC50(MRC5/NHDF) Towne, virus neutralization [7]	IC50(MRC5/NHDF) TB40/E, virus neutralization [8]	IC50(MRC5/NHDF) TR, virus neutralization [9]	IC50(MRC5/NHDF) AD169, virus neutralization [10]	IC50(MRC5/NHDF) AD169R, virus neutralization [10]	Kd [11]	koff [11]	kon [11]	Q2, percent of cells GFP+ and Alexa Fluor 647+ [12]
B1	0.09 µg/mL	0.41 µg/mL	0.24 µg/mL	0.44 µg/mL	0.17 µg/mL	> 90%	0.4%	0.39 µg/mL	0.01 µg/mL	0.87 µg/mL	0.5 µg/mL	3.51 µg/mL	0.31 µg/mL	0.51 µg/mL	2.28 nM	8.69e-05 s⁻¹	38200 M⁻¹ s⁻¹	
B2	1.01 µg/mL	1.12 µg/mL	1.03 µg/mL	1.82 µg/mL		> 90%	0.89%	0.02 µg/mL	0.03 µg/mL	1.09 µg/mL	0.89 µg/mL	3.26 µg/mL	15.9 µg/mL	0.58 µg/mL	5.05 nM	6.51e-05 s⁻¹	12900 M⁻¹ s⁻¹	
B3	3.06 µg/mL	> 50 µg/mL	0.11 µg/mL	19.2 µg/mL			3.68%		0.02 µg/mL	> 50 µg/mL	0.89 µg/mL	> 50 µg/mL	0.91 µg/mL	1.78 µg/mL	64.6 nM	0.00158 s⁻¹	24400 M⁻¹ s⁻¹	
B4	1.1 µg/mL	0.72 µg/mL	1.28 µg/mL	~1.8 µg/mL		> 90%			0.08 µg/mL	2.53 µg/mL	1.09 µg/mL	6.96 µg/mL	0.77 µg/mL	1.52 µg/mL	3.47 nM	8.6e-05 s⁻¹	24800 M⁻¹ s⁻¹	
B5																		3.37%
